19 molecules from patent US20120172295A1 (INDIANA UNIVERSITY RESEARCH AND TECHNOLOGY, published 2012) can be followed below.

Read-outs that look alike come from different tables or passages of the source. Starred links: 1 amine or outer side, 2 acyl side, 3 side chain; linkers in the order of their positions; H or OH if unused. Positions of bridges follow the written chain, without caps; N, C: chain ends. Non-standard residues stand in square brackets, D forms with d. Groups on a side chain read outwards from the residue. Primed or numbered codes have the meaning given here. No end group written: not given here. *: point of attachment. PEG 40 kDa = 40 kDa polyethylene glycol attached to Cys; PEG 40 kDa″ = 40 kDa polyethylene glycol; γGlu = O=C(O)[C@H](CCC(=O)[*:2])N[*:1]; Stearoyl = CCCCCCCCCCCCCCCCCC(=O)*; Palmitoyl = CCCCCCCCCCCCCCCC(=O)*; Myristoyl = CCCCCCCCCCCCCC(=O)*; Nle = CCCC[C@H](N)C(=O)O; Octanoyl = CCCCCCCC(=O)*; Orn = NCCC[C@H](N)C(=O)O; Aib = CC(C)(N)C(=O)O

Common to all, as to test: cell-based or functional assay
Assay [1] has as its target T1, glucagon receptor (UniProt P47871 26-477, limits assumed).
Assay [2] addresses T1, glucagon receptor. This is another data set of the same source.
In assay [3] the target is T2, GLP-1 receptor (UniProt P43220 24-463, limits assumed).
The target of assay [4] is T2, GLP-1 receptor. The source holds these as a separate data set.
The target of assay [5] is T2, GLP-1 receptor. This is another data set of the same source.
The target in assay [6] is T1, glucagon receptor. The source holds these as a separate data set.
Assay [7] addresses T2, GLP-1 receptor. This is another data set of the same source.
The target of assay [8] is T1, glucagon receptor. This is another data set of the same source.
Assay [9] addresses T1, glucagon receptor. The source holds these as a separate data set.
Assay [10] concerns the target T1, glucagon receptor. This is another data set of the same source.
Assay [11] has as its target T2, GLP-1 receptor. This is another data set of the same source.
Assay [12] addresses T2, GLP-1 receptor. The source holds these as a separate data set.
Assay [13] addresses T1, glucagon receptor. This is another data set of the same source.
Assay [14] concerns the target T2, GLP-1 receptor. This is another data set of the same source.
For assay [15], the target named is T1, glucagon receptor. This is another data set of the same source.
In assay [16] the target is T2, GLP-1 receptor. The source holds these as a separate data set.
For assay [17], the target named is T2, GLP-1 receptor. This is another data set of the same source.
Assay [18] deals with T1, glucagon receptor. This is another data set of the same source.

T1 sequence (P47871 26-477 limits assumed): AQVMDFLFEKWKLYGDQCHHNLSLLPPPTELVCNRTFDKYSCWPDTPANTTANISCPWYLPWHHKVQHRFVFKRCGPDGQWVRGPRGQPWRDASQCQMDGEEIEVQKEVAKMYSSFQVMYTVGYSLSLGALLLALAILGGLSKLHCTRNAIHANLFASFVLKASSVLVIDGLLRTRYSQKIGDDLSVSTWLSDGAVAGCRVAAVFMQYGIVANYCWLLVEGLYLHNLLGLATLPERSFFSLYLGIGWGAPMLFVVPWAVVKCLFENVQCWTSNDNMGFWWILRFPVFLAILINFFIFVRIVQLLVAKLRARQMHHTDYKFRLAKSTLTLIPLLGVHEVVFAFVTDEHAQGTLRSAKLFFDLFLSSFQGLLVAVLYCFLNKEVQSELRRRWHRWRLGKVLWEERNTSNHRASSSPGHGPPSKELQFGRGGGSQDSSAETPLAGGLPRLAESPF

The EC50 is the concentration at which the effect is half-maximal. Take HSQGTFTSDK([Trp-Stearoyl])SKYLDERRAKDFVQWLMNT-NH2 [E16 K20-glucagon-NH2 with K10-W-C18]: the EC50 in assay [1] worked out at 0.044 nM; in assay [2] it was 0.05 nM.

With H[Aib]QGTFTSDK(Palmitoyl)SKYLDEQAAKEFIC(PEG 40 kDa)WLMNT-NH2 [C16 acylated Glucagon analog peptide (SEQ ID NO: 536)], the EC50 was 0.0127 nM in [3], 0.033 nM in assay [4], 0.05 nM in assay [5] and 17.4 nM in assay [6].

B1: Peptide 79** (SEQ ID NO: 620) (peptide)
peptide: H[Aib]QGTFTSDK([Ala-Ala-Palmitoyl])SKYLD[Aib]RRAQDFVCWLMNT-NH2
modifications: N-terminus assumed
SMILES: CCCCCCCCCCCCCCCC(=O)N[C@@H](C)C(=O)N[C@@H](C)C(=O)NCCCC[C@H](NC(=O)[C@H](CC(=O)O)NC(=O)[C@H](CO)NC(=O)[C@@H](NC(=O)[C@H](Cc1ccccc1)NC(=O)[C@@H](NC(=O)CNC(=O)[C@H](CCC(N)=O)NC(=O)C(C)(C)NC(=O)[C@@H](N)Cc1c[nH]cn1)[C@@H](C)O)[C@@H](C)O)C(=O)N[C@@H](CO)C(=O)N[C@@H](CCCCN)C(=O)N[C@@H](Cc1ccc(O)cc1)C(=O)N[C@@H](CC(C)C)C(=O)N[C@@H](CC(=O)O)C(=O)NC(C)(C)C(=O)N[C@@H](CCCNC(=N)N)C(=O)N[C@@H](CCCNC(=N)N)C(=O)N[C@@H](C)C(=O)N[C@@H](CCC(N)=O)C(=O)N[C@@H](CC(=O)O)C(=O)N[C@@H](Cc1ccccc1)C(=O)N[C@H](C(=O)N[C@@H](CS)C(=O)N[C@@H](Cc1c[nH]c2ccccc12)C(=O)N[C@@H](CC(C)C)C(=O)N[C@@H](CCSC)C(=O)N[C@@H](CC(N)=O)C(=O)N[C@H](C(N)=O)[C@@H](C)O)C(C)C
With B1, the EC50 amounted to 8 pM in assay [7] and 10 pM in assay [8].

In the case of H[Aib]QGTFTSDK(Palmitoyl)SKYLD[Aib]RRAQDFVQWLMNT-NH2 [Peptide 50 (SEQ ID NO: 563)], in assay [9], the EC50 was 0.052 nM and the “EC50 (20% human plasma)” value came out at 0.023 nM. The molecule also displayed an EC50 in [10] of 0.572 nM.

H[Aib]QGTFTSDK(Myristoyl)SKYLDEQAAKEFIC(PEG 40 kDa)WLMNT-NH2 [C14 acylated Glucagon analog peptide (SEQ ID NO: 535)]: the EC50 in assay [3] stood at 0.0168 nM; in assay [4] it was 0.044 nM.

As for HS[Nle]GTFTSDYSKYLDERRAQDFVQWLMNT-NH2 [NLeu3, E16 Gluc-NH2], the “Percent Potency Relative to Native Ligand” value in assay [11] was determined as 20.6%.

For HXQGTFTSDYSKYLDERRAKDFVQWLMNTK (d-Ser at 2; Lys 30 acylated with C16; C-terminal amide) [Peptide dS2E16K20K30-C16 Gluc Amide], the EC50 is 3.05 nM in assay [12] and 4.89 nM in assay [13].

In the case of H[Aib]QGTFTSDKSKYLDEQAAKEFIC(PEG 40 kDa)WLMNT-NH2 [Non-acylated Glucagon analog peptide (SEQ ID NO: 580)], in assay [4], the EC50 is 0.095 nM. In other words, the picomolar range.

Take HXQGTFTSDYSKYLDERRAKDFVQWLMNTK (d-Ser at 2; Lys 30 acylated with C14; C-terminal amide) [Peptide dS2E16K20K30-C14 Gluc Amide]: the EC50 in [12] is 0.84 nM; in assay [13], 3.53 nM.

As for H[Aib]QGTFTSDYSKYLDEQAAKEFIC([maleimide-PEG 40 kDa″])WLMNT (lactam 16-20) [Peptide Y-PEG], in [14], the “% activity of native GLP-1” value came to 47.6% and the “EC50 (cAMP, CRE-luciferase)” value was 0.059 nM. Further, in assay [15], the “% activity of native glucagon” value is 8.22% and the “EC50 (cAMP, CRE-luciferase)” value is 0.667 nM.

Consider HS[Orn]GTFTSDYSKYLDERRAQDFVQWLMNT-NH2 [Orn3, E16 Gluc-NH2], for which, in [11], the “Percent Potency Relative to Native Ligand” value was 0.1%.

For the molecule HSQGTFTSDK(Palmitoyl)SKYLDERRAKDFVQWLMNT-NH2 [E16 K20-glucagon-NH2 with K10-C16], the EC50 in assay [16] came out at 0.125 nM; in assay [1], 0.236 nM; in assay [17], 0.09 nM; in [2], 0.4 nM.

Regarding HXQGTFTSDKSKYLDERRAKDFVQWLMNT (d-Ser at 2; Lys 10 acylated with C14; C-terminal amide) [Peptide dS2K10(C14)E16K20-Gluc Amide], the concentration giving a half-maximal response (EC50) in assay [12] is 0.041 nM; in assay [13] it was 0.155 nM.

B2: Peptide 78** (SEQ ID NO: 617) (peptide)
peptide: H[Aib]QGTFTSDK([γGlu-γGlu-Myristoyl])SKYLD[Aib]RRAQDFVCWLMNT-NH2
modifications: N-terminus assumed
SMILES: CCCCCCCCCCCCCC(=O)N[C@@H](CCC(=O)N[C@@H](CCC(=O)NCCCC[C@H](NC(=O)[C@H](CC(=O)O)NC(=O)[C@H](CO)NC(=O)[C@@H](NC(=O)[C@H](Cc1ccccc1)NC(=O)[C@@H](NC(=O)CNC(=O)[C@H](CCC(N)=O)NC(=O)C(C)(C)NC(=O)[C@@H](N)Cc1c[nH]cn1)[C@@H](C)O)[C@@H](C)O)C(=O)N[C@@H](CO)C(=O)N[C@@H](CCCCN)C(=O)N[C@@H](Cc1ccc(O)cc1)C(=O)N[C@@H](CC(C)C)C(=O)N[C@@H](CC(=O)O)C(=O)NC(C)(C)C(=O)N[C@@H](CCCNC(=N)N)C(=O)N[C@@H](CCCNC(=N)N)C(=O)N[C@@H](C)C(=O)N[C@@H](CCC(N)=O)C(=O)N[C@@H](CC(=O)O)C(=O)N[C@@H](Cc1ccccc1)C(=O)N[C@H](C(=O)N[C@@H](CS)C(=O)N[C@@H](Cc1c[nH]c2ccccc12)C(=O)N[C@@H](CC(C)C)C(=O)N[C@@H](CCSC)C(=O)N[C@@H](CC(N)=O)C(=O)N[C@H](C(N)=O)[C@@H](C)O)C(C)C)C(=O)O)C(=O)O
Turning to B2, the EC50 turned out to be 8 pM in [7] and 9 pM in [8].

Regarding H[Aib]QGTFTSDYSKYLDEQAAKEFICWLMNT [Peptide X], the “% activity of native GLP-1” value in assay [14] worked out at 202%. Further, the “% activity of native glucagon” value in assay [15] came out at 9.38%.

B3: Peptide 80** (SEQ ID NO: 619) (peptide)
peptide: H[Aib]QGTFTSDK([γGlu-γGlu-Palmitoyl])SKYLD[Aib]RRAQDFVCWLMNT-NH2
modifications: N-terminus assumed
SMILES: CCCCCCCCCCCCCCCC(=O)N[C@@H](CCC(=O)N[C@@H](CCC(=O)NCCCC[C@H](NC(=O)[C@H](CC(=O)O)NC(=O)[C@H](CO)NC(=O)[C@@H](NC(=O)[C@H](Cc1ccccc1)NC(=O)[C@@H](NC(=O)CNC(=O)[C@H](CCC(N)=O)NC(=O)C(C)(C)NC(=O)[C@@H](N)Cc1c[nH]cn1)[C@@H](C)O)[C@@H](C)O)C(=O)N[C@@H](CO)C(=O)N[C@@H](CCCCN)C(=O)N[C@@H](Cc1ccc(O)cc1)C(=O)N[C@@H](CC(C)C)C(=O)N[C@@H](CC(=O)O)C(=O)NC(C)(C)C(=O)N[C@@H](CCCNC(=N)N)C(=O)N[C@@H](CCCNC(=N)N)C(=O)N[C@@H](C)C(=O)N[C@@H](CCC(N)=O)C(=O)N[C@@H](CC(=O)O)C(=O)N[C@@H](Cc1ccccc1)C(=O)N[C@H](C(=O)N[C@@H](CS)C(=O)N[C@@H](Cc1c[nH]c2ccccc12)C(=O)N[C@@H](CC(C)C)C(=O)N[C@@H](CCSC)C(=O)N[C@@H](CC(N)=O)C(=O)N[C@H](C(N)=O)[C@@H](C)O)C(C)C)C(=O)O)C(=O)O
In the case of B3, the concentration for a half-maximal effect (EC50) in assay [7] was 8 pM; in [8], 6 pM.

Take H[Aib]QGTFTSDK([Trp-Palmitoyl])SKYLD[Aib]RRAQDFVC(PEG 40 kDa)WLMNT-NH2 [Glucagon (1-29a) Aib2 Lys10-Trp-C16 Aib16 Cys24-40 kD]: in assay [18], a half-maximal effect (EC50) was put at 0.29 nM.

For H[Aib]QGTFTSDK(Octanoyl)SKYLDEQAAKEFIC(PEG 40 kDa)WLMNT-NH2 [C8 acylated Glucagon analog peptide (SEQ ID NO: 534)], the concentration giving a half-maximal response (EC50) in assay [3] worked out at 0.0174 nM; in assay [4], 0.058 nM.

For the molecule HXQGTFTSDKSKYLDERRAKDFVQWLMNT (d-Ser at 2; Lys 10 acylated with C16; C-terminal amide) [Peptide dS2K10(C16)E16K20-Gluc Amide], the figures for the EC50 in [12] and in assay [13] were 0.041 nM and 0.076 nM, respectively.
